Source: publication PMC11557686

B1: SmBiT-SEC24A [not stated] / LgBiT-SURF4 [not stated] (parent)
chain 1: MSQPGIPASGGAPASLQAQNGAALASGSPYTNGPVQNALLSSQESVSQGYNFQLPGSYPHPIPAKTLNPVSGQSNYGGSQGSGQTLNRPPVASNPVTPSLHSGPAPRMPLPASQNPATTPMPSSSFLPEANLPPPLNWQYNYPSTASQTNHCPRASSQPTVSGNTSLTTNHQYVSSGYPSLQNSFIKSGPSVPPLVNPPLPTTFQPGAPHGPPPAGGPPPVRALTPLTSSYRDVPQPLFNSAVNQEGITSNTNNGSMVVHSSYDEIEGGGLLATPQLTNKNPKMSRSVGYSYPSLPPGYQNTTPPGATGVPPSSLNYPSGPQAFTQTPLGANHLTTSMSGLSLQPEGLRVVNLLQERNMLPSTPLKPPVPNLHEDIQKLNCNPELFRCTLTSIPQTQALLNKAKLPLGLLLHPFKDLVQLPVVTSSTIVRCRSCRTYINPFVSFLDQRRWKCNLCYRVNDVPEEFLYNPLTRVYGEPHRRPEVQNATIEFMAPSEYMLRPPQPPVYLFVFDVSHNAVETGYLNSVCQSLLDNLDLLPGNTRTKIGFITFDSTIHFYGLQESLSQPQMLIVSDIEDVFIPMPENLLVNLNESKELVQDLLKTLPQMFTKTLETQSALGPALQAAFKLMSPTGGRMSVFQTQLPTLGVGALKPREEPNHRSSAKDIHMTPSTDFYKKLALDCSGQQVAVDLFLLSGQYSDLASLGCISRYSAGSVYYYPSYHHQHNPVQVQKLQKELQRYLTRKIGFEAVMRIRCTKGLSIHTFHGNFFVRSTDLLSLPNVNPDAGYAVQMSVEESLTDTQLVSFQSALLYTSSKGERRIRVHTLCLPVVSTLNDVFLGADVQAISGLLANMAVDRSMTASLSDARDALVNAVIDSLSAYRSSVLSNQQPGLMVPFSLRLFPLFVLALLKQKSFQTGTNARLDERIFAMCQVKNQPLVYLMLTTHPSLYRVDNLSDEGALNISDRTIPQPPILQLSVEKLSRDGAFLMDAGSVLMLWVGKNCTQNFLSQVLGVQNYASIPQPMTDLPELDTPESARIIAFISWLREQRPFFPILYVIRDESPMKANFLQNMIEDRTESALSYYEFLLHIQQQVNK
chain 2: MGQNDLMGTAEDFADQFLRVTKQYLPHVARLCLISTFLEDGIRMWFQWSEQRDYIDTTWNCGYLLASSFVFLNLLGQLTGCVLVLSRNFVQYACFGLFGIIALQTIAYSILWDLKFLMRNLALGGGLLLLLAESRSEGKSMFAGVPTMRESSPKQYMQLGGRVLLVLMFMTLLHFDASFFSIVQNIVGTALMILVAIGFKTKLAALTLVVWLFAINVYFNAFWTIPVYKPMHDFLKYDFFQTMSVIGGLLLVVALGPGGVSMDEKKKEW

Variants of: B1
Assay: NanoBiT
Settings: with LgBiT-SURF4; six technical replicates in each of three independent biological replicates; parent: 1; read off a plot

| Variant | ratio to parent |
| --- | --- |
| chain 1 R541A | 1 |
| chain 1 K813A | 0.98 |

The remaining lines, values ahead:

| ratio to parent | Variant |
| --- | --- |
| 0.5 | chain 1 R750A R752A |
| 0.62 | chain 1 Y437A |
